Data on 21 molecules can be found in paper PMC13101046 (Journal of molecular biology, 2025).

“And” between values parts separate entries of the source, which are not always exact repeats. Equal values may be shown once.

B1: RecD (natural protein, E. coli)
chain: MKLQKQLLEAVEHKQLRPLDVQFALTVAGDEHPAVTLAAALLSHDAGEGHVCLPLSRLENNEASHPLLATCVSEIGELQNWEECLLASQAVSRGDEPTPMILCGDRLYLNRMWCNERTVARFFNEVNHAIEVDEALLAQTLDKLFPVSDEINWQKVAAAVALTRRISVISGGPGTGKTTTVAKLLAALIQMADGERCRIRLAAPTGKAAARLTESLGKALRQLPLTDEQKKRIPEDASTLHRLLGAQPGSQRLRHHAGNPLHLDVLVVDEASMIDLPMMSRLIDALPDHARVIFLGDRDQLASVEAGAVLGDICAYANAGFTAERARQLSRLTGTHVPAGTGTEAASLRDSLCLLQKSYRFGSDSGIGQLAAAINRGDKTAVKTVFQQDFTDIEKRLLQSGEDYIAMLEEALAGYGRYLDLLQARAEPDLIIQAFNEYQLLCALREGPFGVAGLNERIEQFMQQKRKIHRHPHSRWYEGRPVMIARNDSALGLFNGDIGIALDRGQGTRVWFAMPDGNIKSVQPSRLPEHETTWAMTVHKSQGSEFDHAALILPSQRTPVVTRELVYTAVTRARRRLSLYADERILSAAIATRTERRSGLAALFSSRE
notes: RecD, E. coli, wild type; Called wild type; Most of RecD has only weak density in the structures solved here; source: purified as part of the RecBCD or RecB^ΔNucCD hetero-trimer
B2: RecC (natural protein, E. coli)
chain: MLRVYHSNRLDVLEALMEFIVERERLDDPFEPEMILVQSTGMAQWLQMTLSQKFGIAANIDFPLPASFIWDMFVRVLPEIPKESAFNKQSMSWKLMTLLPQLLEREDFTLLRHYLTDDSDKRKLFQLSSKAADLFDQYLVYRPDWLAQWETGHLVEGLGEAQAWQAPLWKALVEYTHQLGQPRWHRANLYQRFIETLESATTCPPGLPSRVFICGISALPPVYLQALQALGKHIEIHLLFTNPCRYYWGDIKDPAYLAKLLTRQRRHSFEDRELPLFRDSENAGQLFNSDGEQDVGNPLLASWGKLGRDYIYLLSDLESSQELDAFVDVTPDNLLHNIQSDILELENRAVAGVNIEEFSRSDNKRPLDPLDSSITFHVCHSPQREVEVLHDRLLAMLEEDPTLTPRDIIVMVADIDSYSPFIQAVFGSAPADRYLPYAISDRRARQSHPVLEAFISLLSLPDSRFVSEDVLALLDVPVLAARFDITEEGLRYLRQWVNESGIRWGIDDDNVRELELPATGQHTWRFGLTRMLLGYAMESAQGEWQSVLPYDESSGLIAELVGHLASLLMQLNIWRRGLAQERPLEEWLPVCRDMLNAFFLPDAETEAAMTLIEQQWQAIIAEGLGAQYGDAVPLSLLRDELAQRLDQERISQRFLAGPVNICTLMPMRSIPFKVVCLLGMNDGVYPRQLAPLGFDLMSQKPKRGDRSRRDDDRYLFLEALISAQQKLYISYIGRSIQDNSERFPSVLVQELIDYIGQSHYLPGDEALNCDESEARVKAHLTCLHTRMPFDPQNYQPGERQSYAREWLPAASQAGKAHSEFVQPLPFTLPETVPLETLQRFWAHPVRAFFQMRLQVNFRTEDSEIPDTEPFILEGLSRYQINQQLLNALVEQDDAERLFRRFRAAGDLPYGAFGEIFWETQCQEMQQLADRVIACRQPGQSMEIDLACNGVQITGWLPQVQPDGLLRWRPSLLSVAQGMQLWLEHLVYCASGGNGESRLFLRKDGEWRFPPLAAEQALHYLSQLIEGYREGMSAPLLVLPESGGAWLKTCYDAQNDAMLDDDSTLQKARTKFLQAYEGNMMVRGEGDDIWYQRLWRQLTPETMEAIVEQSQRFLLPLFRFNQS
notes: RecC, E. coli, wild type; Called wild type; source: purified as part of the RecBCD or RecB^ΔNucCD hetero-trimer
B3: RecB^ΔNuc (RecB with the nuclease domain, residues 930-1180, deleted) (domain or fragment, E. coli, UniProt P08394 1-929, looked up)
chain: MSDVAETLDPLRLPLQGERLIEASAGTGKTFTIAALYLRLLLGLGGSAAFPRPLTVEELLVVTFTEAATAELRGRIRSNIHELRIACLRETTDNPLYERLLEEIDDKAQAAQWLLLAERQMDEAAVFTIHGFCQRMLNLNAFESGMLFEQQLIEDESLLRYQACADFWRRHCYPLPREIAQVVFETWKGPQALLRDINRYLQGEAPVIKAPPPDDETLASRHAQIVARIDTVKQQWRDAVGELDALIESSGIDRRKFNRSNQAKWIDKISAWAEEETNSYQLPESLEKFSQRFLEDRTKAGGETPRHPLFEAIDQLLAEPLSIRDLVITRALAEIRETVAREKRRRGELGFDDMLSRLDSALRSESGEVLAAAIRTRFPVAMIDEFQDTDPQQYRIFRRIWHHQPETALLLIGDPKQAIYAFRGADIFTYMKARSEVHAHYTLDTNWRSAPGMVNSVNKLFSQTDDAFMFREIPFIPVKSAGKNQALRFVFKGETQPAMKMWLMEGESCGVGDYQSTMAQVCAAQIRDWLQAGQRGEALLMNGDDARPVRASDISVLVRSRQEAAQVRDALTLLEIPSVYLSNRDSVFETLEAQEMLWLLQAVMTPERENTLRSALATSMMGLNALDIETLNNDEHAWDVVVEEFDGYRQIWRKRGVMPMLRALMSARNIAENLLATAGGERRLTDILHISELLQEAGTQLESEHALVRWLSQHILEPDSNASSQQMRLESDKHLVQIVTIHKSKGLEYPLVWLPFITNFRVQEQAFYHDRHSFEAVLDLNAAPESVDLAEAERLAEDLRLLYVALTRSVWHCSLGVAPLVRRRGDKKGDTDVHQSALGRLLQKGEPQDAAGLRTCIEALCDDDIAWQTAQTGDNQPWQVNDVSTAELNAKTLQRLPGDNWRVTSYSGLQQRGHGIAQDLMPRLDVDAA
notes: RecB, E. coli; the C-terminal nuclease domain RecB^Nuc (RecB930-1180) is deleted, the deletion starts at amino acid 930 and leaves the whole linker (870-929) intact; runs at 105 kDa; Subunit of the RecB^ΔNucCD hetero-trimer; source: purified to homogeneity as part of the RecB^ΔNucCD hetero-trimer, as described previously for RecBCD

The target in series [1] is T1, RecBΔNucCD RecB:del930-1180 (E. coli) (UniProt P08394+P07648+P04993). The series is described as follows: competition fluorescence titration. The settings on record: Buffer M275-10: 20 mM MOPS pH 7.0, 275 mM NaCl, 10 mM MgCl2, 25 °C (M50-10: 50 mM NaCl); cryo-EM buffer 20 mM Tris pH 7.4, 50 mM NaCl, 4 mM MgCl2.
The subject of a further series is RecBCD (E. coli). In words: competition fluorescence titration. The settings on record: Buffer M275-10: 20 mM MOPS pH 7.0, 275 mM NaCl, 10 mM MgCl2, 25 °C (M50-10: 50 mM NaCl); cryo-EM buffer 20 mM Tris pH 7.4, 50 mM NaCl, 4 mM MgCl2.
The target in series [2] is T1, RecBΔNucCD RecB:del930-1180 (E. coli). In words: ITC. The settings on record: Buffer M275-10: 20 mM MOPS pH 7.0, 275 mM NaCl, 10 mM MgCl2, 25 °C (M50-10: 50 mM NaCl); cryo-EM buffer 20 mM Tris pH 7.4, 50 mM NaCl, 4 mM MgCl2.
The target in the series “RecC” is B2. In words: AUC; sedimentation velocity, c(s) distribution; 200 nM protein, Buffer M50-10 (20 mM MOPS pH 7.0, 50 mM NaCl, 10 mM MgCl2), 25 °C, 42,000 rpm, absorbance at 280 nm. The settings on record: both partners purified.
Another series has as its target T2, RecB (E. coli, UniProt P08394 1-1180).
T2 construct: RecB, E. coli, full length (134 kDa); also called full length RecB; source: purified as part of the RecBCD hetero-trimer
T2 sequence (looked up): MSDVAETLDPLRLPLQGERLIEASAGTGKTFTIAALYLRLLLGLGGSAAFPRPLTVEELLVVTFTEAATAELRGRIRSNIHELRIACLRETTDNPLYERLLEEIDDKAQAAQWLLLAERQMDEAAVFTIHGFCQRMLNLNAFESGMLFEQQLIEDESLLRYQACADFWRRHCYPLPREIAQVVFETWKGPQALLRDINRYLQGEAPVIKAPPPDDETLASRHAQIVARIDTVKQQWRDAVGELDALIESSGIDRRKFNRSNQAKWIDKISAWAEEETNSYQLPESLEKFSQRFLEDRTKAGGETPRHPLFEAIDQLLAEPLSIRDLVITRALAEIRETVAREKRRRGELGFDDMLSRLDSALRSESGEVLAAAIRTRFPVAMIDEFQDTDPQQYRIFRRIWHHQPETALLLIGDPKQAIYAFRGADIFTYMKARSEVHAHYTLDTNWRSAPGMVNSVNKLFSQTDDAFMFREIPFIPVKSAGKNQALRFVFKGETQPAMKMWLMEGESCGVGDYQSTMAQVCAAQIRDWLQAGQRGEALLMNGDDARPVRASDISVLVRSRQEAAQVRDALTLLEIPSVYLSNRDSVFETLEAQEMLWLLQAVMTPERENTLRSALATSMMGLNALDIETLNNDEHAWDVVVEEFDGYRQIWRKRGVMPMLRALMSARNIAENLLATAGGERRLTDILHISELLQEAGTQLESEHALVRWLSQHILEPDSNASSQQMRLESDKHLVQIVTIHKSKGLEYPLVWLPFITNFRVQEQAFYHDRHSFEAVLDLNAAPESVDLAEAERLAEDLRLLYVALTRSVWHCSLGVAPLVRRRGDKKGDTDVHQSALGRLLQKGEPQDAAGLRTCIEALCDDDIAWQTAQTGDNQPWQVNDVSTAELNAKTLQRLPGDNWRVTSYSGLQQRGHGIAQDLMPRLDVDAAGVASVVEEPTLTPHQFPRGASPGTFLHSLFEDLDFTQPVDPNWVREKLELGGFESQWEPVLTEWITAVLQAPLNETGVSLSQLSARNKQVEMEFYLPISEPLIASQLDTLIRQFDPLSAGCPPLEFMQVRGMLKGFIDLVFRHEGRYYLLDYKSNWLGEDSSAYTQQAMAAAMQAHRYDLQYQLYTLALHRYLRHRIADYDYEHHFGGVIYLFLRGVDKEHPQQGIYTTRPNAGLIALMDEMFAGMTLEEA
The series is described as above. The settings on record: both partners purified.

3'-dT2: the Ka in series [1] came out at 9.6e+07 M⁻¹; with RecBCD (E. coli) it was 2.1e+07 M⁻¹.
The matching figures for 3'-dT4: 3.3e+08 M⁻¹ and 4.7e+07 M⁻¹.
In the case of 3'-dT6, the Ka came out at 9.5e+08 M⁻¹ in series [1] and 1.1e+08 M⁻¹ in the series on RecBCD (E. coli).
Consider 3'-dT8, for which the Ka in series [1] stood at 7.2e+08 M⁻¹.
In the case of 3'-dT10, the Ka turned out to be 5.9e+08 M⁻¹ in series [1] and 5e+07 M⁻¹ with RecBCD (E. coli).
As for 3'-dT15, the Ka in series [1] was 6e+07 M⁻¹; in the series on RecBCD (E. coli), 1e+07 M⁻¹.
For 5'-dT6, the Ka in series [1] is 1.4e+08 M⁻¹; in the series with RecBCD (E. coli), 1.1e+08 M⁻¹.
As to 5'-dT8, in series [1], the Ka worked out at 2.3e+08 M⁻¹.
Consider 5'-dT10, for which the Ka in series [1] came out at 6.4e+08 M⁻¹; in the series with RecBCD (E. coli), 2.2e+08 M⁻¹.
Turning to 5'-dT15, the figures for the Ka (in series [1]; in the series with RecBCD (E. coli)) were 6.5e+08 M⁻¹ and 2.3e+08 M⁻¹, respectively.
As to blunt ended 60 bp DNA, the Ka in series [1] worked out at 4.7e+07 M⁻¹; in the series with RecBCD (E. coli), 1.4e+07 M⁻¹.
With dT4-dT4, the Ka in series [2] was more than 1e+09 M⁻¹.
Same read-out and setting: as for dT6-dT6, the figure is more than 1e+09 M⁻¹; as for dT10-dT10, more than 1e+09 M⁻¹.
In series [2], dT15-dT15 had a Ka of more than 1e+09 M⁻¹.
Turning to dT20-dT20, the Ka in series [2] was more than 1e+09 M⁻¹.
In series [2], dT25-dT25 had a Ka of more than 1e+09 M⁻¹.
Still for that read-out and setting: the result for dT30-dT30 reads 6.8e+08 M⁻¹ and > 1e+09 M⁻¹.
In the case of B1, the binding result in the series with RecC is “binds”.
With B2, in the series with RecB, the binding result is reported as “binds”.
B3: the binding result with RecC is recorded as “binds”.
